# Measured values reported in the supplement of paper PMC6379048.
# Key:
# Experiment in all cases: Kd (EC50 corrected by depletion factor)
# [1] = target: T1, ZCCHC8 (UniProt Q6NZY4)
# T1 sequence: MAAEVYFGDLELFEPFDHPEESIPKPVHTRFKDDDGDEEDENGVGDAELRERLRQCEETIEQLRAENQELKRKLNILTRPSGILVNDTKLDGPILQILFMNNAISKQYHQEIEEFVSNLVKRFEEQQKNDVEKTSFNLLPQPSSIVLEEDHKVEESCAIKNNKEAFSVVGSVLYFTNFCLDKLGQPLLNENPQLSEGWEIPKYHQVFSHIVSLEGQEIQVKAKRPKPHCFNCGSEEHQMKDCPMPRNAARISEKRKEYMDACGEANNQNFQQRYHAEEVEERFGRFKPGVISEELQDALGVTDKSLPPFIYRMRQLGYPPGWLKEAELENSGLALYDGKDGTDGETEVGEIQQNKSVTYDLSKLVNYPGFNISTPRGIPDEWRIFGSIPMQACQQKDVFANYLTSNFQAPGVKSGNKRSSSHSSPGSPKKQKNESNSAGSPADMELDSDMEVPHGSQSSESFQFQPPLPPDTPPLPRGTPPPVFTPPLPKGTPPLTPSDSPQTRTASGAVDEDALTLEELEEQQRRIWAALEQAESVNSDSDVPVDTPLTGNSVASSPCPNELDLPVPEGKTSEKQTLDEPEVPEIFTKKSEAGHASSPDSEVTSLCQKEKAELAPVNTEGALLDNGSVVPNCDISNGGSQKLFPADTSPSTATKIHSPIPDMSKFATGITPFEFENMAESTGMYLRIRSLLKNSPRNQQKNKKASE
# Method: (§1)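 Competition-binding assay: HEK293-FT cell lysate (2.5 mg protein) pre-incubated 1 h at 4°C with free motif-containing RNA oligos (0 to 30 µM, 12 doses), then pulled down with the same 5'-amino-C6 RNA oligos immobilised on NHS-Sepharose beads (30 min, 4°C). Bound proteins were quantified by label-free LC-MS/MS and normalised to the water control. EC50 came from a four-parameter log-logistic fit; Kd = EC50 x depletion factor. Random/reversed control probes are dropped.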
# [2] = target: T2, DHX36 (UniProt Q9H2U1)
# T2 sequence: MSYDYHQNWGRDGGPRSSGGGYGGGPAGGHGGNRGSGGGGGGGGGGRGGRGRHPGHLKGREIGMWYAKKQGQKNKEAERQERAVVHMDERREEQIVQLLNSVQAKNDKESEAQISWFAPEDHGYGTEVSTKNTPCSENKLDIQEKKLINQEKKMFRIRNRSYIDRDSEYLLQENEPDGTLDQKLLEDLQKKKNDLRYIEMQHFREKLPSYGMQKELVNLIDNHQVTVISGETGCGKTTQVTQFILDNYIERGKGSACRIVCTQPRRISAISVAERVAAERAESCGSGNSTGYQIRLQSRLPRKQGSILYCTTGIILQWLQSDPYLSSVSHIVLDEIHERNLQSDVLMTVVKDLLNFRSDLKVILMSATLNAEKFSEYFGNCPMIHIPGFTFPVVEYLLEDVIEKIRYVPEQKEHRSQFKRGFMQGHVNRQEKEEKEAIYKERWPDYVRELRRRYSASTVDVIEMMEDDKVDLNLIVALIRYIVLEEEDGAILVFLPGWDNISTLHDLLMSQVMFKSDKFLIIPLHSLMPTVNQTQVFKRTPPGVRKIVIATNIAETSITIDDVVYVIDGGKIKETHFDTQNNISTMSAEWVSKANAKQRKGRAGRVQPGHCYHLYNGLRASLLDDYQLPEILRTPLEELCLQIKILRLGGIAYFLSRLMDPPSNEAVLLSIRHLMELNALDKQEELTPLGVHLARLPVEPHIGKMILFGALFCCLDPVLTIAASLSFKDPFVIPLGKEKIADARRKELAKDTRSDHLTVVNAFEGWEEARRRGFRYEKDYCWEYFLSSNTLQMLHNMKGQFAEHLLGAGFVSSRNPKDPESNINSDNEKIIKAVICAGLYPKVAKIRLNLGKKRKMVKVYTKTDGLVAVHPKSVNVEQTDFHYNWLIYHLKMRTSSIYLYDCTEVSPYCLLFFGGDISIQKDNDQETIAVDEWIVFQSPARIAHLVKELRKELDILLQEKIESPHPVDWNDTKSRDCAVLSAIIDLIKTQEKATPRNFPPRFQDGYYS
# Method: as §1
# [3] = target: T3, HNRNPUL1 (UniProt Q9BUJ2)
# T3 sequence: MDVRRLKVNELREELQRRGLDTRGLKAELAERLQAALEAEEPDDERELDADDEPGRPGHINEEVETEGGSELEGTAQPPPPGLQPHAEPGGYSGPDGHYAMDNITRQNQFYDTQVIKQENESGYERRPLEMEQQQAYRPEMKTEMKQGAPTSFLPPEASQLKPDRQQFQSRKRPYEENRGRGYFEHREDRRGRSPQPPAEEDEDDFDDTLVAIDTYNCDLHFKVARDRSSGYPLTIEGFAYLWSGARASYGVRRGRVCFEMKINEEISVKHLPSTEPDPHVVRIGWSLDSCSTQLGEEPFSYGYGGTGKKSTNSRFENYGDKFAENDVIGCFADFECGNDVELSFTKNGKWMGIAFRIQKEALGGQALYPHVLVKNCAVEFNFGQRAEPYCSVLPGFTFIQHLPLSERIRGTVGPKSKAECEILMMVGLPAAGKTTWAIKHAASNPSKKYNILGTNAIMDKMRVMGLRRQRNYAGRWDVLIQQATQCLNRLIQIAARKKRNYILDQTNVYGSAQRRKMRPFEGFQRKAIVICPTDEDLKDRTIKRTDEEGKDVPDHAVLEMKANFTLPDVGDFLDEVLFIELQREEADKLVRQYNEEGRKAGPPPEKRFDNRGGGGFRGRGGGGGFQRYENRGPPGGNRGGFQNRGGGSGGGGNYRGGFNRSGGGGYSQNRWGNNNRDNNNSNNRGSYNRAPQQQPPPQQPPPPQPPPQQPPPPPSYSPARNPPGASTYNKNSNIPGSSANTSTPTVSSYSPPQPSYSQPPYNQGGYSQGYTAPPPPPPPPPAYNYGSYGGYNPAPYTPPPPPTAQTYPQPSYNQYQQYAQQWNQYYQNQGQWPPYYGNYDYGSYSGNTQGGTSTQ
# Method: as §1
Sequence,Kd [1] [nM],Kd [2] [nM],Kd [3] [nM]
AAUAAA,190,573,308
CUGUCCU,1740,1850,35.7
UAUUUAU,200,632,427
